From patent US20230312755A1 come the findings set out here.

Experiment [1] concerns the target human Sclerostin (human) (UniProt Q9BQB4). The experiment in a line: BLI (Gator), antibody on anti-hFc biosensor, Sclerostin as analyte, 1:1 global fit.
Experiment [2] concerns the target His-tagged human Sclerostin (NCBI reference No. NP_079513.1) (human) (UniProt Q9BQB4). The experiment in a line: ELISA, plate coated with His-tagged human Sclerostin. For orientation: In an ELISA, binding on a coated surface is turned into a signal by an enzyme label.
The target of experiment [3] is human Sclerostin (human) (UniProt Q9BQB4). The experiment in a line: cell-based or functional assay.
human Sclerostin (human), sequence (Q9BQB4 24-213 limits assumed): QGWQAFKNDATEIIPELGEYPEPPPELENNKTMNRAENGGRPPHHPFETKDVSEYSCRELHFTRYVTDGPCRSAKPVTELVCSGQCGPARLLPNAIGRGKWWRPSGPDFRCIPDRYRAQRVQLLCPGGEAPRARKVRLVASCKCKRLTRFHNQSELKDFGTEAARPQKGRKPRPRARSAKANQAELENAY

His-tagged human Sclerostin (NCBI reference No. NP_079513.1) (human), sequence (Q9BQB4 24-213 limits assumed): as above

B1: Romosozumab (antibody, INN chains, looked up, V domains shown)
VH: EVQLVQSGAEVKKPGASVKVSCKASGYTFTDYNMHWVRQAPGQGLEWMGEINPNSGGAGYNQKFKGRVTMTTDTSTSTAYMELRSLRSDDTAVYYCARLGYDDIYDDWYFDVWGQGTTVTVSS
VL: DIQMTQSPSSLSASVGDRVTITCRASQDISNYLNWYQQKPGKAPKLLIYYTSRLLSGVPSRFSGSGSGTDFTLTISSLQPEDFATYYCQQGDTLPYTFGGGTKVEIK
What is called Kd is the free concentration of one partner at which half of the binding sites on the other are occupied at equilibrium, for simple one-to-one binding. A higher Kd goes with a looser complex. As a reminder, the koff is a measure of how fast the partners let go of each other. One may read the kon as the second-order rate constant of association. As usually defined, the EC50 is the midpoint of the concentration-response curve. A higher EC50 goes with weaker potency. For the molecule B1, in experiment [1], the Kd amounted to 0.78 nM, the dissociation rate constant (koff) is 0.00028 s⁻¹ and the kon stood at 360000 M⁻¹ s⁻¹. In experiment [2], this molecule displayed an EC50 of 0.11 nM. The same molecule showed an EC50, Sclerostin-neutralisation activity in HEK293/TCF/LEF/Wnt1 cells (luciferase reporter) in experiment [3] of 42.3 nM.
